To fix the notation:
T1: cynomolgus monkey SIRPγ-His monomer protein (cynomolgus monkey, UniProt Q9P1W8 29-359 (human entry), limits assumed)
T1 construct: also called Cyno SIRPγ; Cyno SIRPγ-His
T1 chain: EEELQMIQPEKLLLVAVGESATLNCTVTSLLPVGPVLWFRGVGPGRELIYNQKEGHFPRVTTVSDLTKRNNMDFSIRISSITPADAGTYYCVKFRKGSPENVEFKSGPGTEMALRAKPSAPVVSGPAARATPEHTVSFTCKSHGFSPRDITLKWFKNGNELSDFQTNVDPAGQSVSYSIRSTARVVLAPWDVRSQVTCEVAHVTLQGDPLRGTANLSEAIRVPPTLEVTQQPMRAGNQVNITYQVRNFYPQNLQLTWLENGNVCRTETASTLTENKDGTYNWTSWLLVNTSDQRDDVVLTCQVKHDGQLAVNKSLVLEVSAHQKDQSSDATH

T2: cynomolgus monkey SIRPγ on CHO cells (cynomolgus monkey, UniProt Q9P1W8 29-386 (human entry))
T2 construct: also called Cyno SIRPγ CHO
T2 chain: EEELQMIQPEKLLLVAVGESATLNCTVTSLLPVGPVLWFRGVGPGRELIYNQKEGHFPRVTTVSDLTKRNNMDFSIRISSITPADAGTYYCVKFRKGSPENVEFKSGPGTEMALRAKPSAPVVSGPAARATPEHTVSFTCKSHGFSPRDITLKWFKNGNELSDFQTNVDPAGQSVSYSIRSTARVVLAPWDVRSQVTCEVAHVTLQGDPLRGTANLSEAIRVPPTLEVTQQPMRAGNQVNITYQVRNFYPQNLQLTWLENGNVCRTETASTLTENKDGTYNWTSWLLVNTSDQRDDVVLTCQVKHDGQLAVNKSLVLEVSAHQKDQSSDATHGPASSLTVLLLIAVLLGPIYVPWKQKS

T3: cynomolgus monkey SIRPα on CHO cells (cynomolgus monkey, UniProt A0A2K5VYQ9 31-507)
T3 construct: whole, on cells; also called Cyno SIRPα CHO
T3 sequence: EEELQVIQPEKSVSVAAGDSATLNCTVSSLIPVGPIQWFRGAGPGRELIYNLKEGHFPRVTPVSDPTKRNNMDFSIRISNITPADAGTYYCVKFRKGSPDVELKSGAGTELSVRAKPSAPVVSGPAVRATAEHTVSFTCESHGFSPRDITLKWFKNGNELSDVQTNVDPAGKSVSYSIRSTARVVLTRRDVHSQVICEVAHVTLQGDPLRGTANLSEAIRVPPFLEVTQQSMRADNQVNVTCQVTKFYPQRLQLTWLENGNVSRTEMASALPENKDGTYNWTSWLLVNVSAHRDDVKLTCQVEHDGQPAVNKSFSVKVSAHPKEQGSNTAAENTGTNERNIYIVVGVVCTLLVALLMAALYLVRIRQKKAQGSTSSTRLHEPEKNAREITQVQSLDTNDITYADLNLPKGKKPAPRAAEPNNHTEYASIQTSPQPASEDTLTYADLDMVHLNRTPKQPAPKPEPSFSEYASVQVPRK

T4: Cynomolgus Monkey SIRPγ (plate-coated extracellular domain)
T4 construct: also called Cyno SIRPγ
T4 extracellular domain: T1 chain

B1: Antibody 97 (antibody, V domains shown)
VH: QVQLVQSGAEVKKPGASVKVSCKASGHTFNNNYIHWVRQAPGQGLEWMGIINPSGGSTSYAQKFQGRVTMTRDTSTSTVYMELSSLRSEDTAVYYCARQIQDYGYYYYGMDVWGQGTTVTVSS
VL: EIVMTQSPATLSVSPGERATLSCRASQSVSKYLAWYQQKPGQAPRLLIYAISARAAGIPARFSGSGSGTEFTLTISSLQSEDFAVYYCQQYYSSPPTFGQGTKVEIK
B2: Antibody 83 (antibody, V domains shown)
VH: QVQLVQSGAEVKKPGASVKVSCKASGYSFSDYYMHWVRQAPGQGLEWMGWMSPNSGNTGYAQKFQGRVTMTRDTSTSTVYMELSSLRSEDTAVYYCARQREEYGHYYYGMDVWGQGTMVTVSS
VL: EIVMTQSPATLSVSPGERATLSCRASQSLGSTYLAWYQQKPGQAPRLLIYGASTRATGIPARFSGSGSGTEFTLTISSLQSEDFAVYYCQQYYSSPPTFGQGTKVEIK
B3: Antibody 88 (antibody, V domains shown)
VH: QVQLVQSGAEVKKPGASVKVSCKASGYTFTSHDINWVRQAPGQGLEWMGWMNANNGNAGYAQKFQGRVTMTRDTSTSTVYMELSSLRSEDTAVYYCAKDLSPSSSWSTYYYYYGMDVWGQGTMVTVSS
VL: DIQMTQSPSSLSASVGDRVTITCRASQSISNLLAWYQQKPGKAPKLLIYAASSLQSGVPSRFSGSGSGTDFTLTISSLQPEDFATYYCQQSYSTPYTFGQGTKLEIK
B4: Antibody 95 (antibody, V domains shown)
VH: QVQLVQSGAEVKKPGASVKVSCKASGYTFTSYYMHWVRQAPGQGLEWMGWMNPNSGNTGYAQKFQGRVTMTRDTSTSTVYMELSSLRSEDTAVYYCARDQMYSSYGMDVWGQGTTVTVSS
VL: B3 VL with Q27E, S30T, L32W, A50K, Q55E, S93G, L104V
B5: Antibody 90 (antibody, V domains shown)
VH: QVQLVQSGAEVKKPGASVKVSCKASGYTFTSYYMHWVRQAPGQGLEWMGWMNPNSDNTGYAQKFQGRVTMTRDTSTSTVYMELSSLRSEDTAVYYCARVGVGYGYYYYGMDVWGQGTTVTVSS
VL: B3 VL with S26G, S30G, N31D, L32Y, A34N, Y96W, L104V
B6: Antibody 94 (antibody, V domains shown)
VH: QVQLVQSGAEVKKPGASVKVSCKASGYTFTSYGISWVRQAPGQGLEWMGWISAYNGNTNYAQKFQGRVTMTRDTSTSTVYMELSSLRSEDTAVYYCARGTYYDYIWGSYRYSWFDYWGQGTLVTVSS
VL: not shown
B7: Antibody 96 (antibody, V domains shown)
VH: QVQLVQSGAEVKKPGASVKVSCKASGYTFTRYDINWVRQAPGQGLEWMGWMNPNSGNTGYAQKLQGRVTMTRDTSTSTVYMELSSLRSEDTAVYYCARERVGYCSSTSCLHPLDYWGQGTLVTVSS
VL: DIQMTQSPSSLSASVGDRVTITCRASQGIRNDLGWYQQKPGKAPKLLIYSASNLQSGVPSRFSGSGSGTDFTLTISSLQPEDFATYYCQQSYDVPLTFGGGTKVEIK
B8: Antibody 60 (antibody, V domains shown)
VH: EVQLLESGGGLVQPGGSLRLSCAASGFTLGSYWMHWVRQAPGKGLEWVSLISWDGGSTYYADSVKGRFTISRDNSKNTLYLQMNSLRAEDTAVYYCAKGPWVGYSGYDLNYYYYGMDVWGQGTTVTVSS
VL: B3 VL with S28D, S30R, N31R, L32A, Q89L, S91H, Y92N, T94Y, Y96P

Residue numbers refer to the chain shown, from its start.

T8 sequence (Q9P1W8 29-387 limits assumed): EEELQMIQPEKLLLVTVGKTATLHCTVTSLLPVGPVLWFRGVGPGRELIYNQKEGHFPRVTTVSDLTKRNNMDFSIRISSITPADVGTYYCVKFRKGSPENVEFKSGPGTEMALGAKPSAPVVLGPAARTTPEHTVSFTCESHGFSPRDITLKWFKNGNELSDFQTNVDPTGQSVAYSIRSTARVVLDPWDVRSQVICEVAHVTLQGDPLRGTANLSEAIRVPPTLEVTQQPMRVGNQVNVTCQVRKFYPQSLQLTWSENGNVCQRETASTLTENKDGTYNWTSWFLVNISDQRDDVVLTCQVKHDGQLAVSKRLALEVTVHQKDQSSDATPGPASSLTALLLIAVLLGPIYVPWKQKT
T7 sequence (O00241 30-398): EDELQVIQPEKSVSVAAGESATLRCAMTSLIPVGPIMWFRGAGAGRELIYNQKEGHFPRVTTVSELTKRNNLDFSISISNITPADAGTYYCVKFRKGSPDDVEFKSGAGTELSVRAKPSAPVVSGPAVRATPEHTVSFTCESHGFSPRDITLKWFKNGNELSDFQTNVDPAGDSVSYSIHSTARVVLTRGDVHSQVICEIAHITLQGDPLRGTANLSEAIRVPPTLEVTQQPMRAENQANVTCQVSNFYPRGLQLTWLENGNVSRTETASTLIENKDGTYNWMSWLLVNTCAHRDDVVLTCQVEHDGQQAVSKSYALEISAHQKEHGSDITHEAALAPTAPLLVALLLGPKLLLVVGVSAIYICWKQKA

The target of one experiment is T5, human SIRPγ-His monomer protein (human, UniProt Q9P1W8 29-360).
T5 construct: also called hSIRPγ
T5 sequence (Q9P1W8 29-360 limits assumed): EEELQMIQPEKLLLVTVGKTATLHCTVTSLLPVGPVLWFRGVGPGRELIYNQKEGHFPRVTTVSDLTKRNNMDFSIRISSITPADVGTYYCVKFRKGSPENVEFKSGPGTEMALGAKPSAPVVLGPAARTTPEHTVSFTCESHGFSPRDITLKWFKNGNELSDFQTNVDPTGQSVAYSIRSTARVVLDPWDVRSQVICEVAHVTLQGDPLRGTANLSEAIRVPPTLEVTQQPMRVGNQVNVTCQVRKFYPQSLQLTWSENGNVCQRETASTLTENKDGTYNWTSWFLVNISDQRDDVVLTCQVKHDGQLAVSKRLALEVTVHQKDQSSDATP
As to the kind of experiment: BLI Octet, antibody on AHC, global 1:2 model. How it is done: (§1) Antibodies were coated onto anti-human Fc capture (AHC) biosensors. SIRP-His monomer protein or bivalent SIRP protein with mouse Fc at four concentrations (200 nM, 100 nM, 50 nM, 25 nM) were exposed to the biosensor to measure on-rate kinetics of SIRP antibodies binding to SIRP protein. The biosensors were then exposed to wash buffer to measure off-rate kinetics. The resulting kinetic data were analyzed and fitted using a global 1:2 binding model.
On the technique in general: Biolayer interferometry detects binding as a change in optical thickness at a sensor tip.
As for B1, the Kd worked out at 362 nM.
Still for that read-out and setting: with B2 the figure was 174 nM; with B3, 136 nM.
On the same count and under the same terms, with B4 the figure was 193 nM.
Turning to B5, the Kd worked out at 175 nM.
On to B6, for which the Kd was found to be 30.1 nM.
B7 had a Kd of 70.3 nM.

The next experiment concerns the target T1, cynomolgus monkey SIRPγ-His monomer …. The experiment in a line: BLI Octet, antibody on AHC, global 1:2 model. Here is the method:
as §1
In the case of B1, the Kd was 16.3 nM.
Regarding B2, the Kd was found to be 11.7 nM.
For the molecule B3, the Kd was 67.8 nM.
On to B4, for which the Kd stood at 40.3 nM.
In the case of B5, the Kd amounted to 69.2 nM.
Same read-out and setting: as for B6, the figure is 42.6 nM.
With B7, the Kd was 211 nM.

In another experiment the target is T6, bivalent human SIRPγ protein with mouse Fc (human, UniProt Q9P1W8 29-360).
T6 construct: also called Human SIRPγ-mFc
T6 sequence (Q9P1W8 29-360 limits assumed): as above
As to the kind of experiment: BLI Octet, antibody on AHC, global 1:2 model. Here is the method:
as §1
In turn, B1 registered a Kd of 48.4 nM.
In turn, B2 came in with a Kd of 53.2 nM.
In turn, B3 gave a Kd of 50.6 nM.
In turn, B4 yielded a Kd of 1280 nM.
The same measure, in the same setting: as for B5, the figure is 87.6 nM; as for B6, 80.2 nM; as for B7, 21.5 nM.

Another experiment has as its target T2, cynomolgus monkey SIRPγ on CHO cells. As to the kind of experiment: flow cytometry, CHO transfectants, anti-human IgG. In short, it runs like this: (§2)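 Flow cytometry on stable CHO transfectants; antibody titration; fluorescent anti-human IgG detection; MFI per concentration. myc-tagged scFv: crude PPE on SIRP-expressing CHO and parental CHO-K1; fold change <2.0 = non-binder.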
In general terms: Flow cytometry measures light scatter and fluorescence of single cells or particles in a stream.
One may read the EC50 (read off the curve) as the concentration that produces a half-maximal response. For B8, the concentration for a half-maximal effect (EC50 (read off the curve)) is about 0.7 µg/mL.
B7: the “EC50 (read off the curve)” value was about 0.6 µg/mL.

The target in another experiment is T3, cynomolgus monkey SIRPα on CHO cells. The experiment in a line: flow cytometry, CHO transfectants, anti-human IgG. Summed up:
as §2
Consider B1, for which the binding result was “no binding (tested: about 30 µg/mL)”.
The same measure, in the same setting: as for B2, the entry is “no binding (tested: about 30 µg/mL)”; as for B3, “no binding (tested: about 30 µg/mL)”; as for B4, “no binding (tested: about 30 µg/mL)”.
On to B8, for which the binding result was “no binding (tested: about 20 µg/mL)”.
Consider B5, for which the binding result is “no binding (tested: about 30 µg/mL)”.
Turning to B6, the binding result is recorded as “no binding (tested: about 30 µg/mL)”.
The same measure, in the same setting: as for B7, the entry is “no binding (tested: about 30 µg/mL)”.

Another experiment has as its target T7, human SIRPβ1 on CHO cells (co-transfected with DAP12) (human, UniProt O00241 30-398).
T7 construct: whole, on cells; co-transfected with DAP12; also called Human SIRPβ1 CHO
As to the kind of experiment: flow cytometry, CHO transfectants, anti-human IgG. In short, it runs like this: as §2
Regarding B1, the binding result is listed as “no binding (tested: about 30 µg/mL)”.
In the case of B2, the binding result is “no binding (tested: about 30 µg/mL)”.
Take B3: the binding result is given as “no binding (tested: about 30 µg/mL)”.
For the molecule B4, the binding result is “no binding (tested: about 30 µg/mL)”.
In the case of B8, the binding result is listed as “no binding (tested: about 20 µg/mL)”.
Consider B5, for which the binding result was “no binding (tested: about 30 µg/mL)”.
The same measure, in the same setting: as for B6, the entry is “no binding (tested: about 30 µg/mL)”.
As to B7, the binding result is given as “no binding (tested: about 30 µg/mL)”.

A further experiment concerns the target T8, human SIRPγ on stably transfected CHO cells (human, UniProt Q9P1W8 29-387).
T8 construct: also called Human SIRPγ CHO
The experiment in a line: flow cytometry, CHO transfectants, anti-human IgG. In short, it runs like this: as §2
Take B3: the “EC50 (read off the curve)” value is about 0.7 µg/mL.
For the molecule B8, the “EC50 (read off the curve)” value was about 0.9 µg/mL.
Same read-out and setting: with B7 the figure was about 0.4 µg/mL.

A further experiment concerns the target T4, Cynomolgus Monkey SIRPγ (plate-coated …). As to the kind of experiment: ELISA, coated SIRP ECD (2 µg/mL), anti-human IgG, luminescence. In short, it runs like this: (§3)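 Plate-coated SIRP extracellular domain (2 μg/mL), blocked, then exposed to purified antibodies in titration, after transient expression in Expi293F cells for 5 days and Protein A purification. Bound antibody is detected with anti-human IgG and a chemiluminescent substrate, and reported as relative luminescence units.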
On the technique in general: An ELISA detects its analyte on a solid surface through an enzyme-linked reagent.
Take B8: the “EC50 (read off the curve)” value is about 0.03 µg/mL.

The next experiment deals with T9, extracellular binding domain of human SIRPγ (plate-coated) (human, UniProt Q9P1W8 29-360).
T9 construct: also called hSIRPγ
T9 sequence (Q9P1W8 29-360 limits assumed): as above
The description is as above. Summed up:
as §3
In the case of B3, the “EC50 (read off the curve)” value is about 0.04 µg/mL.
Consider B4, for which the “EC50 (read off the curve)” value was about 0.07 µg/mL.
Take B8: the “EC50 (read off the curve)” value is about 0.02 µg/mL.

The next experiment concerns the target T9, extracellular binding domain of human …. As to the kind of experiment: competition ELISA, coated SIRPγ ECD, antibody 1 h then 10 µg/mL biotinylated CD47-Fc (blocked ligand), streptavidin-HRP. Here is the method: To carry out the competition experiment, the extracellular binding domain of SIRPγ was coated onto a high protein-binding plate and blocked. A titration of each SIRPγ antibody was incubated on the plate for 1 hour. […] Following a wash, streptavidin-HRP was added. The plate was washed again and developed using a chemiluminescent substrate. The plate was read on a plate reader to assess luminescence. […] A known blocker antibody was used as a positive control.
As to B1, the “IC50 (read off the curve)” value was about 0.3 µg/mL.
Still for that read-out and setting: as for B2, the figure is about 0.2 µg/mL.
In the case of B3, the “IC50 (read off the curve)” value is about 0.4 µg/mL.
Turning to B4, the “IC50 (read off the curve)” value was about 1 µg/mL.
On the same count and under the same terms, as for B5, the figure is about 0.2 µg/mL.
As to B6, the “IC50 (read off the curve)” value was about 0.2 µg/mL.

Values taken from patent US20240400677A1 (ELECTRA THERAPEUTICS, published 2024).
